The series deals with the molecule itself. The series is described as follows: SAXS.

B1: TFG N terminus (amino acids 1-138), wild type (domain or fragment, human, UniProt Q92734 1-138, looked up)
chain: MNGQLDLSGKLIIKAQLGEDIRRIPIHNEDITYDELVLMMQRVFRGKLLSNDEVTIKYKDEDGDLITIFDSSDLSFAIQCSRILKLTLFVNGQPRPLESSQVKYLRRELIELRNKVNRLLDSLEPPGEPGPSTNIPEN
Take B1: the “stoichiometry N” value came to 8.

The values above are taken from publication PMC6152936 (Cell reports, 2018).
